Bridges are numbered along the chain shown (N, C = ends). Where no end group is shown, it is not given here. [ ]: non-standard residue; d: D form. Nle = CCCC[C@H](N)C(=O)O; Dap = NC[C@H](N)C(=O)O
Key:
Experiment in all cases: cell-based or functional assay
[1] = target: mouse melanocortin-3 receptor (mouse, UniProt P33033 1-323)
[2] = target: mouse melanocortin-5 receptor (mouse, UniProt P41149 1-325)
[3] = target: mouse melanocortin-4 receptor (mouse, UniProt P56450 1-332)
[4] = target: mouse melanocortin-1 receptor (mouse, UniProt Q01727 1-315)
Sequence of mouse melanocortin-1 receptor (Q01727 whole entry): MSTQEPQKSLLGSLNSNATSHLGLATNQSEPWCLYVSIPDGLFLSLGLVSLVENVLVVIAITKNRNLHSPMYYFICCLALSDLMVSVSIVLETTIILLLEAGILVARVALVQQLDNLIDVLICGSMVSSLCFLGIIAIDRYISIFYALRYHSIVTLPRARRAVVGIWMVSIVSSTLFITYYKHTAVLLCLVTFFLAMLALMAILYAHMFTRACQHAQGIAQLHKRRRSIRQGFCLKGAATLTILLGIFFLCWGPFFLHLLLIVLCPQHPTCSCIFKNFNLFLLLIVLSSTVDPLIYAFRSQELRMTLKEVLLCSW

Sequence of mouse melanocortin-3 receptor (P33033 whole entry): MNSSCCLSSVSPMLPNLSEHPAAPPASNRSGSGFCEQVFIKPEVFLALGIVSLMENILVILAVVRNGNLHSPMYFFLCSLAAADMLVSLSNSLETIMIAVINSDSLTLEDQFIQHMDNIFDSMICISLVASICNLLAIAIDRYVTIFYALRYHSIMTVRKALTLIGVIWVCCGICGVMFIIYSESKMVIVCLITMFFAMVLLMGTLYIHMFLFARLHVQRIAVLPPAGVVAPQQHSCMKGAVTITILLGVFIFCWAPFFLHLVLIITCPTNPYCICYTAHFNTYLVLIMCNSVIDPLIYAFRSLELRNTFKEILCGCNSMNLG
Sequence of mouse melanocortin-4 receptor (P56450 whole entry): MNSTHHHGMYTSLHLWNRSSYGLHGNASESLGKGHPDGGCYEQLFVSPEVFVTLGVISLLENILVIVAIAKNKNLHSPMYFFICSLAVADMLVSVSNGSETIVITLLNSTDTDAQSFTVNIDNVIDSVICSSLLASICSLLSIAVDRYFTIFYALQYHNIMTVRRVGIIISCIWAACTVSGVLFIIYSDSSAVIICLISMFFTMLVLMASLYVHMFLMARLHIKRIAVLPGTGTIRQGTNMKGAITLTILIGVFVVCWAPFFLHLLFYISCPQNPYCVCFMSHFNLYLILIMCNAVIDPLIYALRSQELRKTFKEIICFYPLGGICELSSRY
Sequence of mouse melanocortin-5 receptor (P41149 whole entry): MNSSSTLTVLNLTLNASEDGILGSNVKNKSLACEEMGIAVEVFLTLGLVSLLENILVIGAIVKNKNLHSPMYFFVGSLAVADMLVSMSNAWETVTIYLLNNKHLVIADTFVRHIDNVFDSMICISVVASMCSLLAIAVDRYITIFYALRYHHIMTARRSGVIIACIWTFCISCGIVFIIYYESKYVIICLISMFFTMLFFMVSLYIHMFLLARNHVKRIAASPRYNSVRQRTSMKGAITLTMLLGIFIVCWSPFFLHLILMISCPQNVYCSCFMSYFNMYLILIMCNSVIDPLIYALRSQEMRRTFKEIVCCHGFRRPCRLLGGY

Row | Binder | pA2 (antagonist; Partial agonist) [1] | EC50 (agonist) [2] | EC50 (agonist) [3] | EC50 (agonist) [4] | EC50 (agonist) [1] | pA2 (antagonist) [1] | pA2 (antagonist) [3] | pA2 (antagonist; Partial agonist) [3] | EC50 (agonist; Partial agonist) [1]
1 | YDFXRWNAFXY (Asp-Dpr side chain lactam bridge; Dpr; DPhe; C-terminal amide (amide resin)) [SEQ ID NO:29 (Tyr-c[Asp-Phe-DPhe-Arg-Trp-Asn-Ala-Phe-Dpr]-Tyr)] | 7.2 | 3.15 nM | 0.64 nM | 6.04 nM | – | – | – | – | –
2 | YDHXRXNAFXY (Asp-Dpr side chain lactam bridge; Dpr; DPhe; Bip; C-terminal amide (amide resin)) [SEQ ID NO:41 (Tyr-c[Asp-His-DPhe-Arg-Bip-Asn-Ala-Phe-Dpr]-Tyr)] | – | 3.43 nM | 42.6 nM | 11.6 nM | 0.45 µM | – | – | – | –
3 | Ac-SYS[Nle]EH[dR]FFGKPV-NH2 [SEQ ID NO:16 (Ac-Ser-Tyr-Ser-Nle-Glu-His-DArg-Phe-Phe-Gly-Lys-Pro-Val)] | – | – | > 100000 nM | – | > 100 µM | – | – | – | –
4 | YDHXRANAFXY (Asp-Dpr side chain lactam bridge; Dpr; DPhe; C-terminal amide (amide resin)) [SEQ ID NO:27 (Tyr-c[Asp-His-DPhe-Arg-Ala-Asn-Ala-Phe-Dpr]-Tyr)] | – | 50.1 nM | 710 nM | 350 nM | 13.5 µM | – | – | – | –
5 | YDPXRWNAFXY (Asp-Dpr side chain lactam bridge; Dpr; DPhe; C-terminal amide (amide resin)) [SEQ ID NO:28 (Tyr-c[Asp-Pro-DPhe-Arg-Trp-Asn-Ala-Phe-Dpr]-Tyr)] | 7.2 | 7.16 nM | 0.63 nM | 22.1 nM | – | – | – | – | –
6 | Ac-[Nle]DHR[dF]FK-NH2 (lactam 2-7) [SEQ ID NO:22 (Ac-Nle-c[Asp-His-Arg-DPhe-Phe-Lys])] | – | 3600 nM | 5000 nM | 440 nM | 14.4 µM | – | – | – | –
7 | YD[dF]RWNAF[Dap]Y-NH2 (lactam 2-9) [SEQ ID NO:7 (Tyr-c[Asp-DPhe-Arg-Trp-Asn-Ala-Phe-Dpr]-Tyr-NH2)] | – | 124 nM | 450 nM | 4850 nM | – | – | – | – | –
8 | YDHXAWNAFXY (Asp-Dpr side chain lactam bridge; Dpr; DPhe; C-terminal amide (amide resin)) [SEQ ID NO:26 (Tyr-c[Asp-His-DPhe-Ala-Trp-Asn-Ala-Phe-Dpr]-Tyr)] | – | 2.06 nM | 32.5 nM | 66.5 nM | 23.8 µM | – | – | – | –
9 | YDHPRWNAF[Dap]Y-NH2 (lactam 2-10; N-terminus assumed; SMILES C[C@@H]1NC(=O)[C@H](CC(N)=O)NC(=O)[C@H](Cc2c[nH]c3ccccc23)NC(=O)[C@H](CCCNC(=N)N)NC(=O)[C@@H]2CCCN2C(=O)[C@H](Cc2c[nH]cn2)NC(=O)[C@@H](NC(=O)[C@@H](N)Cc2ccc(O)cc2)CC(=O)NC[C@@H](C(=O)N[C@@H](Cc2ccc(O)cc2)C(N)=O)NC(=O)[C@H](Cc2ccccc2)NC1=O) [SEQ ID NO:31 (Tyr-c[Asp-His-Pro-Arg-Trp-Asn-Ala-Phe-Dpr]-Tyr)] | – | 7900 nM | 16700 nM | 10300 nM | 13.2 µM | – | – | – | –
10 | YDHXRWNAFXY (Asp-Dpr side chain lactam bridge; Dpr; DBip; C-terminal amide (amide resin)) [SEQ ID NO:35 (Tyr-c[Asp-His-DBip-Arg-Trp-Asn-Ala-Phe-Dpr]-Tyr)] | – | 5.27 nM | 0.57 nM | 3.87 nM | 0.033 µM | – | – | – | –
11 | YDHXRXNAFXY (Asp-Dpr side chain lactam bridge; Dpr; DPhe; Nal(2′); C-terminal amide (amide resin)) [SEQ ID NO:39 (Tyr-c[Asp-His-DPhe-Arg-Nal(2′)-Asn-Ala-Phe-Dpr]-Tyr)] | – | 1.93 nM | 0.27 nM | 0.53 nM | 0.00556 µM | – | – | – | –
12 | Ac-SYS[Nle]EHRF[dF]GKPV-NH2 (SMILES CCCC[C@H](NC(=O)[C@H](CO)NC(=O)[C@H](Cc1ccc(O)cc1)NC(=O)[C@H](CO)NC(C)=O)C(=O)N[C@@H](CCC(=O)O)C(=O)N[C@@H](Cc1c[nH]cn1)C(=O)N[C@@H](CCCNC(=N)N)C(=O)N[C@@H](Cc1ccccc1)C(=O)N[C@H](Cc1ccccc1)C(=O)NCC(=O)N[C@@H](CCCCN)C(=O)N1CCC[C@H]1C(=O)N[C@H](C(N)=O)C(C)C) [SEQ ID NO:18 (Ac-Ser-Tyr-Ser-Nle-Glu-His-Arg-Phe-DPhe-Gly-Lys-Pro-Val)] | – | – | > 100000 nM | 3630 nM | > 100 µM | – | – | – | –
13 | YDHXRPNAFXY (Asp-Dpr side chain lactam bridge; Dpr; DPhe; C-terminal amide (amide resin)) [SEQ ID NO:38 (Tyr-c[Asp-His-DPhe-Arg-Pro-Asn-Ala-Phe-Dpr]-Tyr)] | – | 700 nM | 7200 nM | 1000 nM | 39.2 µM | – | – | – | –
14 | YDHXPWNAFXY (Asp-Dpr side chain lactam bridge; Dpr; DPhe; C-terminal amide (amide resin)) [SEQ ID NO:36 (Tyr-c[Asp-His-DPhe-Pro-Trp-Asn-Ala-Phe-Dpr]-Tyr)] | – | 3200 nM | 4300 nM | 990 nM | 17.3 µM | – | – | – | –
15 | YDRFFNAF[Dap]Y-NH2 (lactam 2-9) [SEQ ID NO:3 (Tyr-c[Asp-Arg-Phe-Phe-Asn-Ala-Phe-Dpr]-Tyr)] | – | > 100000 nM | – | – | – | 5.7 | 5.9 | – | –
16 | YDHXRXNAFXY (Asp-Dpr side chain lactam bridge; Dpr; DPhe; DNal(2′); C-terminal amide (amide resin)) [SEQ ID NO:40 (Tyr-c[Asp-His-DPhe-Arg-DNal(2′)-Asn-Ala-Phe-Dpr]-Tyr)] | – | 0.95 nM | 0.67 nM | 0.2 nM | 0.0065 µM | – | – | – | –
17 | YDHXRWNAFXY (Asp-Dpr side chain lactam bridge; Dpr; (pI)DPhe; C-terminal amide (amide resin)) [SEQ ID NO:32 (Tyr-c[Asp-His-(pI)DPhe-Arg-Trp-Asn-Ala-Phe-Dpr]-Tyr)] | – | 2.33 nM | – | 0.3 nM | – | 8.9 | – | 9.4 | –
18 | YCRF[dF]NAFCY-NH2 (disulfide 2-9; N-terminus assumed; SMILES C[C@@H]1NC(=O)[C@H](CC(N)=O)NC(=O)[C@@H](Cc2ccccc2)NC(=O)[C@H](Cc2ccccc2)NC(=O)[C@H](CCCNC(=N)N)NC(=O)[C@@H](NC(=O)[C@@H](N)Cc2ccc(O)cc2)CSSC[C@@H](C(=O)N[C@@H](Cc2ccc(O)cc2)C(N)=O)NC(=O)[C@H](Cc2ccccc2)NC1=O) [SEQ ID NO:1 (Tyr-c[Cys-Arg-Phe-DPhe-Asn-Ala-Phe-Cys]-Tyr)] | – | 239 nM | – | 61.3 nM | > 100 µM | – | – | 6.1 | –
19 | YDHXRWNAFXY (Asp-Dpr side chain lactam bridge; Dpr; DNal(1′); C-terminal amide (amide resin)) [SEQ ID NO:34 (Tyr-c[Asp-His-DNal(1′)-Arg-Trp-Asn-Ala-Phe-Dpr]-Tyr)] | – | 3.13 nM | 0.57 nM | 9.2 nM | 0.32 µM | – | – | – | –
20 | Ac-[Nle]DH[dR]FFK-NH2 (lactam 2-7) [SEQ ID NO:21 (Ac-Nle-c[Asp-His-DArg-Phe-Phe-Lys])] | – | > 100000 nM | > 100000 nM | > 100000 nM | > 100 µM | – | – | – | –
21 | Ac-[Nle]DHRF[dF]K-NH2 (lactam 2-7; SMILES CCCC[C@H](NC(C)=O)C(=O)N[C@H]1CC(=O)NCCCC[C@@H](C(N)=O)NC(=O)[C@@H](Cc2ccccc2)NC(=O)[C@H](Cc2ccccc2)NC(=O)[C@H](CCCNC(=N)N)NC(=O)[C@H](Cc2c[nH]cn2)NC1=O) [SEQ ID NO:23 (Ac-Nle-c[Asp-His-Arg-Phe-DPhe-Lys])] | – | – | > 100000 nM | 2630 nM | – | – | – | – | –
22 | YDFRWNAF[Dap]Y-NH2 (lactam 2-9) [SEQ ID NO:6 (Tyr-c[Asp-Phe-Arg-Trp-Asn-Ala-Phe-Dpr]-Tyr)] | – | 3900 nM | 13400 nM | 19700 nM | – | – | – | – | –
23 | YDHXRWNAFXY (Asp-Dpr side chain lactam bridge; Dpr; DNal(2′); C-terminal amide (amide resin)) [SEQ ID NO:33 (Tyr-c[Asp-His-DNal(2′)-Arg-Trp-Asn-Ala-Phe-Dpr]-Tyr)] | – | 22.3 nM | – | 5.56 nM | – | 8.3 | – | 9.3 | –
24 | YDHARWNAF[Dap]Y-NH2 (lactam 2-10; N-terminus assumed; SMILES C[C@@H]1NC(=O)[C@H](CC(N)=O)NC(=O)[C@H](Cc2c[nH]c3ccccc23)NC(=O)[C@H](CCCNC(=N)N)NC(=O)[C@H](C)NC(=O)[C@H](Cc2c[nH]cn2)NC(=O)[C@@H](NC(=O)[C@@H](N)Cc2ccc(O)cc2)CC(=O)NC[C@@H](C(=O)N[C@@H](Cc2ccc(O)cc2)C(N)=O)NC(=O)[C@H](Cc2ccccc2)NC1=O) [SEQ ID NO:25 (Tyr-c[Asp-His-Ala-Arg-Trp-Asn-Ala-Phe-Dpr]-Tyr)] | – | 690 nM | 14700 nM | 14000 nM | – | – | – | – | 30.3 µM
25 | YDWR[dF]NAF[Dap]Y-NH2 (lactam 2-9; N-terminus assumed; SMILES C[C@@H]1NC(=O)[C@H](CC(N)=O)NC(=O)[C@@H](Cc2ccccc2)NC(=O)[C@H](CCCNC(=N)N)NC(=O)[C@H](Cc2c[nH]c3ccccc23)NC(=O)[C@@H](NC(=O)[C@@H](N)Cc2ccc(O)cc2)CC(=O)NC[C@@H](C(=O)N[C@@H](Cc2ccc(O)cc2)C(N)=O)NC(=O)[C@H](Cc2ccccc2)NC1=O) [SEQ ID NO:5 (Tyr-c[Asp-Trp-Arg-DPhe-Asn-Ala-Phe-Dpr]-Tyr)] | – | 2220 nM | 10900 nM | 6120 nM | – | – | – | – | –
26 | YDXXRWNAFXY (Asp-Dpr side chain lactam bridge; Dpr; (rac)Atc; DPhe; C-terminal amide (amide resin)) [SEQ ID NO:30 (Tyr-c[Asp-(rac)Atc-DPhe-Arg-Trp-Asn-Ala-Phe-Dpr]-Tyr)] | – | 440 nM | 115 nM | 690 nM | – | 6.4 | – | – | –
27 | YDHXKWNAFXY (Asp-Dpr side chain lactam bridge; Dpr; DPhe; C-terminal amide (amide resin)) [SEQ ID NO:37 (Tyr-c[Asp-His-DPhe-Lys-Trp-Asn-Ala-Phe-Dpr]-Tyr)] | – | 800 nM | 8600 nM | 680 nM | 30.8 µM | – | – | – | –
28 | YDAXRWNAFXY (Asp-Dpr side chain lactam bridge; Dpr; DPhe; C-terminal amide (amide resin)) [SEQ ID NO:24 (Tyr-c[Asp-Ala-DPhe-Arg-Trp-Asn-Ala-Phe-Dpr]-Tyr)] | – | 0.46 nM | 0.36 nM | 7.2 nM | 0.029 µM | – | – | – | –
